According to patent US20180355009A1:
Values belong to the binder of their own block, whether it stands above or below them.

Target: T1, human IL-22 receptor complex IL22R1 and IL10R2, overexpressed on HEK 293 cells (human) (UniProt Q8N6P7)
T1 sequence (looked up) 1: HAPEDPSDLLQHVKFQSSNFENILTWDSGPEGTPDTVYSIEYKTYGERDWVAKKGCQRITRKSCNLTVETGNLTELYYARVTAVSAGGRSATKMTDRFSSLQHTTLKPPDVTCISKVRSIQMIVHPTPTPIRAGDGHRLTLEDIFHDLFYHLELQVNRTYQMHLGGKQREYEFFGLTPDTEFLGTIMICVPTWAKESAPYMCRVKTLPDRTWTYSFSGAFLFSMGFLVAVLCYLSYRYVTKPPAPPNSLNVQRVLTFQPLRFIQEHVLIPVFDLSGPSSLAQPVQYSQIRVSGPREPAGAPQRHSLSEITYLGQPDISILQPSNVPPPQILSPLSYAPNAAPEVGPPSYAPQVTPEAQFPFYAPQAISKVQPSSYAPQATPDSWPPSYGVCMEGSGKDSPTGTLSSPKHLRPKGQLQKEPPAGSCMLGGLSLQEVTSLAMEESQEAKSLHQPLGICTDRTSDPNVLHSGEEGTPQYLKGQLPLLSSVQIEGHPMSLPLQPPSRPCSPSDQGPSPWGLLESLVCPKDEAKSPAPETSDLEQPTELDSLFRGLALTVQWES
T1 sequence (looked up) 2: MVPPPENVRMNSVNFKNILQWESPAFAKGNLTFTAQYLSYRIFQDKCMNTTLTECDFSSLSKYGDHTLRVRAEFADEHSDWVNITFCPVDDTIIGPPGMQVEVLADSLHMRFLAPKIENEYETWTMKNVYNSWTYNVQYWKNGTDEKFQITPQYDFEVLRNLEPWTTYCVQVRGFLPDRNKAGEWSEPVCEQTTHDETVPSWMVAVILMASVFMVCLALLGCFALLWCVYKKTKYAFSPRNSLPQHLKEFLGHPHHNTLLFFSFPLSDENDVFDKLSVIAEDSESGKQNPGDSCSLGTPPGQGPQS
Assay: cell-based or functional assay

EC50 (pM), STAT3 luciferase reporter assay: 25 pM
B1: IL-22 Fc construct 13 (huIgG1, linker …, produced in CHO) (Fc fusion, not shown: a dimerising Fc or GST)
chain: APISSHCRLDKSNFQQPYITNRTFMLAKEASLADNNTDVRLIGEKLFHGVSMSERCYLMKQVLNFTLEEVLFPQSDRFQPYMQEVVPFLARLSNRLSTCHIEGDDLHIQRNVQKLKDTVKKLGESGEIKAIGELDLLFMSLRNACIKVDKKVEPKSSDKTHT

EC50 (pM), STAT3 luciferase reporter assay: 20 pM
B2: IL-22 Fc construct 18 (huIgG1, linker …, N297G, produced in CHO) (Fc fusion, not shown: a dimerising Fc or GST)
chain: APISSHCRLDKSNFQQPYITNRTFMLAKEASLADNNTDVRLIGEKLFHGVSMSERCYLMKQVLNFTLEEVLFPQSDRFQPYMQEVVPFLARLSNRLSTCHIEGDDLHIQRNVQKLKDTVKKLGESGEIKAIGELDLLFMSLRNACIKKVEPKSSDKTHT

EC50 (pM), STAT3 luciferase reporter assay: 25 pM
B3: IL-22 Fc construct 12 (huIgG1, linker …, produced in CHO) (Fc fusion, not shown: a dimerising Fc or GST)
chain: APISSHCRLDKSNFQQPYITNRTFMLAKEASLADNNTDVRLIGEKLFHGVSMSERCYLMKQVLNFTLEEVLFPQSDRFQPYMQEVVPFLARLSNRLSTCHIEGDDLHIQRNVQKLKDTVKKLGESGEIKAIGELDLLFMSLRNACIDKKVEPKSSDKTHT

EC50 (pM), STAT3 luciferase reporter assay: 16 pM
B4: IL-22 Fc construct 24 (huIgG1, linker …, produced in E. coli) (Fc fusion, not shown: a dimerising Fc or GST)
chain: APISSHCRLDKSNFQQPYITNRTFMLAKEASLADNNTDVRLIGEKLFHGVSMSERCYLMKQVLNFTLEEVLFPQSDRFQPYMQEVVPFLARLSNRLSTCHIEGDDLHIQRNVQKLKDTVKKLGESGEIKAIGELDLLFMSLRNACIEPKSSDKTHT
